What was measured:
[1] = target: T1, EGFR-AP fusion protein (UniProt P00533 25-645); test: BIAcore SPR, EGFR-AP immobilised on the chip; koff/kon
T1 construct: Immobilised on the BIAcore sensor chip; Neither the species nor the residues of the EGFR part are stated
Description: (§1) Sensorgrams were obtained at each concentration and were analyzed with BIA Evaluation 2.0, a program to determine the rate constants, kₒₙ and koff. The affinity constant, Kd, was calculated from the ratio of rate constants, koff/kₒₙ.

[2] = target: T1, EGFR-AP fusion protein; test: BIAcore SPR, EGFR-AP immobilised on the chip
Description: as §1

B1: IMC-11F8 Fab (Fab, V domains shown)
VH: QVQLQESGPGLVKPSQTLSLTCTVSGGSISSGDYYWSWIRQPPGKGLEWIGYIYYSGSTDYNPSLKSRVTMSVDTSKNQFSLKVNSVTAADTAVYYCARVSIFGVGTFDYWGQGTLVTVSS
VL: EIVMTQSPATLSLSPGERATLSCRASQSVSSYLAWYQQKPGQAPRLLIYDASNRATGIPARFSGSGSGTDFTLTISSLEPEDFAVYYCHQYGSTPLTFGGGTKAEIK
[1]
  Kd: 1.78 nM
[2]
  koff: 0.00367 s⁻¹
  kon: 2.29e+06 M⁻¹ s⁻¹

B2: IMC-11F8 (full human IgG1 anti-EGFR antibody) (antibody, V domains shown)
VH: B1 VH
VL: B1 VL
notes: also called IMC-C11F8; 11F8 monoclonal antibody
[1]
  Kd: 0.32 nM
[2]
  koff: 0.00058 s⁻¹
  kon: 1.86e+06 M⁻¹ s⁻¹

Source: US20070264253A1 (Eli Lilly, published 2007)
